{"source": "paper PMC5095173", "about": "“Disulfide-activated protein kinase G Iα regulates cardiac diastolic relaxation and fine-tunes the Frank–Starling response” (Nature Communications, 2016)", "molecules": {"B1": {"name": "6-phosphofructokinase, liver type: PKGIα substrate, phospho site S775 (protein, UniProt P30835 2-780, looked up)", "ATP-dependent …": "ATVDLEKLRMSGAGKAIGVLTSGGDAQGMNAAVRAVTRMGIYVGAKVFLIYEGYEGLVEGGENIKPANWLSVSNIIQLGGTIIGSARCKAFTTREGRLAAAYNLLQHGITNLCVIGGDGSLTGANIFRNEWGSLLEELVKEGKISESTAQNYAHLSIAGLVGSIDNDFCGTDMTIGTDSALHRIMEVIDAITTTAQSHQRTFVLEVMGRHCGYLALVSALASGADWLFIPEAPPEDGWENFMCERLGETRSRGSRLNIIIIAEGAIDRHGKPISSSYVKDLVVQRLGFDTRVTVLGHVQRGGTPSAFDRVLSSKMGMEAVMALLEATPDTPACVVSLSGNQSVRLPLMECVQVTKDVQKAMDEKRFDEAIQLRGRSFENNWKIYKLLAHQKVSKEKSNFSLAILNVGAPAAGMNAAVRSAVRTGISEGHTVYVVHDGFEGLAKGQVQEVGWHDVAGWLGRGGSMLGTKRTLPKPHLEAIVENLRTYNIHALLVIGGFEAYEGVLQLVEARGRYEELCIVMCVIPATISNNVPGTDFSLGSDTAVNAAMESCDRIKQSASGTKRRVFIVETMGGYCGYLATVTGIAVGADAAYVFEDPFNIHDLKANVEHMTEKMKTDIQRGLVLRNEKCHEHYTTEFLYNLYSSEGRGVFDCRTNVLGHLQQGGAPTPFDRNYGTKLGVKAMLWMSEKLRDVYRKGRVFANAPDSACVIGLRKKVVAFSSVTELKKETDFEHRMPREQWWLNLRLMLKMLAHYRISMADYVSGELEHVTRRTLSIDKGF", "modifications": "phosphorylated at S775"}, "B2": {"name": "1-phosphatidylinositol 4,5-bisphosphate phosphodiesterase gamma-1: PKGIα substrate, phospho site S1233 (protein, UniProt P10686 2-1290, looked up)", "1-phosphatidylinositol …": "AGVGTPCANGCGPSAPSEAEVLHLCRSLEVGTVMTLFYSKKSQRPERKTFQVKLETRQITWSRGADKIEGSIDIREIKEIRPGKTSRDFDRYQEDPAFRPDQSHCFVILYGMEFRLKTLSLQATSEDEVNMWIKGLTWLMEDTLQAATPLQIERWLRKQFYSVDRNREDRISAKDLKNMLSQVNYRVPNMRFLRERLTDFEQRSGDITYGQFAQLYRSLMYSAQKTMDLPFLETNTLRTGERPELCQVSLSEFQQFLLEYQGELWAVDRLQVQEFMLSFLRDPLREIEEPYFFLDELVTFLFSKENSVWNSQLDAVCPETMNNPLSHYWISSSHNTYLTGDQFSSESSLEAYARCLRMGCRCIELDCWDGPDGMPVIYHGHTLTTKIKFSDVLHTIKEHAFVASEYPVILSIEDHCSIAQQRNMAQHFRKVLGDTLLTKPVDIAADGLPSPNQLKRKILIKHKKLAEGSAYEEVPTSVMYSENDISNSIKNGILYLEDPVNHEWYPHYFVLTSSKIYYSEETSSDQGNEDEEEPKEASGSTELHSSEKWFHGKLGAGRDGRHIAERLLTEYCIETGAPDGSFLVRESETFVGDYTLSFWRNGKVQHCRIHSRQDAGTPKFFLTDNLVFDSLYDLITHYQQVPLRCNEFEMRLSEPVPQTNAHESKEWYHASLTRAQAEHMLMRVPRDGAFLVRKRNEPNSYAISFRAEGKIKHCRVQQEGQTVMLGNSEFDSLVDLISYYEKHPLYRKMKLRYPINEEALEKIGTAEPDYGALYEGRNPGFYVEANPMPTFKCAVKALFDYKAQREDELTFTKSAIIQNVEKQDGGWWRGDYGGKKQLWFPSNYVEEMINPAILEPEREHLDENSPLGDLLRGVLDVPACQIAIRPEGKNNRLFVFSISMPSVAQWSLDVAADSQEELQDWVKKIREVAQTADARLTEGKMMERRKKIALELSELVVYCRPVPFDEEKIGTERACYRDMSSFPETKAEKYVNKAKGKKFLQYNRLQLSRIYPKGQRLDSSNYDPLPMWICGSQLVALNFQTPDKPMQMNQALFMAGGHCGYVLQPSTMRDEAFDPFDKSSLRGLEPCVICIEVLGARHLPKNGRGIVCPFVEIEVAGAEYDSTKQKTEFVVDNGLNPVWPAKPFHFQISNPEFAFLRFVVYEEDMFSDQNFLAQATFPVKGLKTGYRAVPLKNNYSEDLELASLLIKIDIFPAKENGDLSPFSGTSLRERASDASSQLFHVRAREGSFEARYQQPFEDFRISQEHLADHFDSRERRAPRRTRVNGDNRL", "modifications": "phosphorylated at S1233"}, "B3": {"name": "C-1-tetrahydrofolate synthase, cytoplasmic: PKGIα substrate, phospho site T545 (protein, UniProt P27653 1-935, looked up)", "C-1-tetrahydrofolate …": "MAPAGILNGKVVSAQIRNRLKTQVTQMQEQVPGFTPGLAILQVGDRDDSNLYINVKLKAAQEIGIKATHIKLPRTSTESEVLKYVISLNEDATVHGFIVQLPLDSENSINTEAVINAIAPEKDVDGLTSINAGKLARGDLKDCFIPCTPKGCLELIKETGVQIAGRHAVVVGRSKIVGAPMHDLLLWNNATVTTCHSKTADLDKEVNKGDILVVATGQPEMVKGEWIKPGAVVIDCGINYVPDDTKPNGRKVVGDVAYDEAKEKASFITPVPGGVGPMTVAMLMQSTVESAQRFLKKFKPGKWTIQYNKLNLKTPVPSDIAISRSCKPKLIGNLAREIGLLTEEVELYGETKAKVLLSALDRLKHQPDGKYVVVTGITPTPLGEGKSTTTIGLVQALGAHLHQNVFACVRQPSQGPTFGIKGGAAGGGYSQVIPMEEFNLHLTGDIHAITAANNLVAAAIDARIFHELTQTDKALFNRLVPSVNGVRKFSDIQIRRLRRLGIEKTDPAALTDDEINRFARLDIDPETITWQRVLDTNDRFLRKITIGQAPTEKGHTRTAQFDISVASEIMAVLALTSSLEDMRARLGKMVVASSKKGEPISCEDLGVSGALTVLMKDAIKPNLMQTLEGTPVFVHAGPFANIAHGNSSIIADRIALKLVGPEGFVVTEAGFGADIGMEKFFNIKCRYSGLQPHVVVLVATVRALKMHGGGPTVTAGLPLPKAYTEEDLDLVEKGFSNLRKQIENARMFGVPVVVAMNAFKTDTDTELDLIGRLSREHGAFDAVKCTHWAEGGQGALALAQAVQRASQAPSSFQLLYDLKLSVEDKIRIIAQKIYGADDIELLPEAQNKAEIYTKQGFGNLPICMAKTHLSLSHNPEQKGVPTGFVLPIRDIRASVGAGFLYPLVGTMSTMPGLPTRPCFYDIDLDPETEQVNGLF", "modifications": "phosphorylated at T545"}, "B4": {"name": "Alpha-2-macroglobulin receptor-associated protein: PKGIα substrate, phospho site S245 (protein, UniProt Q99068 34-360, looked up)", "Alpha-2-macroglobulin …": "HGGKYSREKNEPEMAAKRESGEEFRMEKLNQLWEKAKRLHLSPVRLAELHSDLKIQERDELNWKKLKVEGLDGDGEKEAKLVHNLNVILARYGLDGRKDTQTVHSNALNEDTQDELGDPRLEKLWHKAKTSGKFSSEELDKLWREFLHYKEKIHEYNVLLDTLSRAEEGYENLLSPSDMTHIKSDTLASKHSELKDRLRSINQGLDRLRKVSHQGYGPATEFEEPRVIDLWDLAQSANFTEKELESFREELKHFEAKIEKHNHYQKQLEISHQKLKHVESIGDPEHISRNKEKYVLLEEKTKELGYKVKKHLQDLSSRVSRARHNEL", "modifications": "phosphorylated at S245"}, "B5": {"name": "Pfkl pS775 (protein, UniProt P30835 2-780, looked up)", "ATP-dependent …": "B1 ATP-dependent …", "modifications": "phosphorylated at S775"}, "B6": {"name": "Fdx1 pS181 (protein, UniProt P24483 65-188, looked up)", "Adrenodoxin, mitochondrial": "SSSEDKVTVHFKNRDGETLTTKGKVGDSLLDVVIENNLDIDGFGACEGTLACSTCHLIFEDHIYEKLDAITDEENDMLDLAFGLTNRSRLGCQVCLTKAMDNMTVRVPEAVADVRQSVDMSKNS", "modifications": "phosphorylated at S181"}}}
{"tested_on": "PKGIα (analogue-sensitive C42S/M438G), cGMP-activated", "test": "Chemical genetic phosphoproteomic screen, cGMP-activated PKGIα C42S/M438G versus unactivated control", "assay_type": "biochemical, human PKGIα; substrates in rat heart homogenate", "details": "PKGIα C42S/M438G + 100 μM cGMP vs basal; 1 h, 30 °C, pH 7.5, rat heart homogenate; label-free LC–MS/MS; n=4; * P<0.05 Dunnett: all values except phospholamban S16", "outline": "(§1)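 Analogue-sensitive human PKGIα mutants (M438G, air-oxidized to disulfide dimer; C42S/M438G, cGMP-activated), expressed in 293-F cells, thiophosphorylate substrates in rat left-ventricle lysate (20 mg ml) using N6-alkylated ATPγS. Thiophosphopeptides are recovered by covalent capture and identified with sites by LC–MS/MS, each compared against an unactivated control.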"}
{"molecule": "B1", "Log2 fold change in phosphorylation, cGMP versus control": "4.13*"}
{"molecule": "B2", "Log2 fold change in phosphorylation, cGMP versus control": "4.50*"}
{"molecule": "B3", "Log2 fold change in phosphorylation, cGMP versus control": "3.68*"}
{"molecule": "B4", "Log2 fold change in phosphorylation, cGMP versus control": "2.64*"}
{"tested_on": "PKGIα (analogue-sensitive C42S/M438G), cGMP-activated", "test": "Chemical genetic phosphoproteomic screen, cGMP-activated PKGIα C42S/M438G versus unactivated control", "assay_type": "biochemical, human PKGIα; substrates in rat heart homogenate", "details": "control = PKGIα C42S/M438G", "outline": "as §1"}
{"molecule": "B5", "log2 fold change cGMP vs Control": 4.1288}
{"molecule": "B6", "log2 fold change cGMP vs Control": 5.584}
{"tested_on": "PKGIα (analogue-sensitive M438G), disulfide-activated", "test": "Chemical genetic phosphoproteomic screen, disulfide-activated PKGIα M438G versus unactivated control", "assay_type": "biochemical, human PKGIα; substrates in rat heart homogenate", "details": "control = PKGIα C42S/M438G", "outline": "as §1"}
{"molecule": "B5", "log2 fold change Disulfide vs Control": 1.482}
{"molecule": "B6", "log2 fold change Disulfide vs Control": 2.723}
{"tested_on": "PKGIα (analogue-sensitive M438G), disulfide-activated", "test": "Chemical genetic phosphoproteomic screen, disulfide-activated PKGIα M438G versus unactivated control", "assay_type": "biochemical, human PKGIα; substrates in rat heart homogenate", "details": "disulfide-activated PKGIα M438G vs basal; 1 h, 30 °C, pH 7.5, rat heart homogenate; label-free LC–MS/MS; n=4; * P<0.05 Dunnett: only phospholamban S16", "outline": "as §1"}
{"molecule": "B1", "Log2 fold change in phosphorylation, Disulfide versus control": 1.48}
{"molecule": "B2", "Log2 fold change in phosphorylation, Disulfide versus control": 1.82}
{"molecule": "B3", "Log2 fold change in phosphorylation, Disulfide versus control": 1.48}
{"molecule": "B4", "Log2 fold change in phosphorylation, Disulfide versus control": 0.32}
